Biological target: T1, BG505 SOSIP.664 Env trimer (preparation for cryo-EM) (HIV-1 (strain BG505), UniProt Q2N0S6)
T1 construct: also called BG505_(SOSIP) trimer; source: Expi293F, transient co-transfection with a furin-encoding plasmid; copies: 3 + 3
Assay: cryo-EM structure; Fab–trimer complexes in TBS, incubated overnight at room temperature: 04_A06–PGDM1400–BG505 at 3.6:1.2:1 (Fab:Fab:trimer), purified on Superose-6 Increase; 01_D03–BG505 and 05_B08–BG505 at 3.6:1 (Fab:trimer) without further SEC
Details: both partners purified

B1: PGDM1400 Fab (Fab, V domains shown)
VH: QAQLVQSGPEVRKPGTSVKVSCKAPGNTLKTYDLHWVRSVPGQGLQWMGWISHEGDKKVIVERFKAKVTIDWDRSTNTAYLQLSGLTSGDTAVYYCAKGSKHRLRDYALYDDDGALNWAVDVDYLSNLEFWGQGTAVTVSS
VL: DFVLTQSPHSLSVTPGESASISCKSSHSLIHGDRNNYLAWYVQKPGRSPQLLIYLASSRASGVPDRFSGSGSDKDFTLKISRVETEDVGTYYCMQGRESPWTFGQGTKVDIK
stoichiometry N: 1 Fab per trimer
